Data published in patent publication US20260275304A1, “METHODS AND COMPOSITIONS FOR GLYPHOSATE TOLERANCE IN PLANTS” (Monsanto Technology LLC, priority 2023, published 2026).
Positions count from the first letter of the chain named. Names may count otherwise. Read-outs that look alike come from different tables or passages of the source.

How the values were obtained:
transgenic maize plants [1] = test: Greenhouse glyphosate spray test on hybrid (hemizygous) transgenic maize; format: in vivo, Zea mays; details: for Average Injury At 1120 g/ha: Roundup PowerMax3, 1× field rate; for Average Injury At 1120 g/ha / Average Injury At 2240 g/ha: 18 days after treatment, scale of 0 to 100; for Average Injury At 2240 g/ha: Roundup PowerMax3, 2× field rate
Description: To further evaluate the performance of EPSPS variants for glyphosate tolerance, transgenic maize plants comprising a single copy of the transgene encoding the EPSPS variants TIPS-P126S-M217L-K296R or TIPS-P126S-K296R were grown to maturity. Homozygous transgenic plants were crossed with an inbred line to produce hybrid seeds.
Plants from the hybrid seeds (hemizygous for the transgenes) of two independent transformation events for each of the two variants were grown in the greenhouse for glyphosate spray test. Roundup® PowerMax3, a commercial formulation of glyphosate, was applied at the third leaf stage at two rates: 1120 gram/hectare (1× the field rate) and 2240 gram/hectare (2× the field rate). The controls included an untreated untransformed control without glyphosate treatment, an untransformed control sprayed with glyphosate, and a TIPS positive control both sprayed with glyphosate. Glyphosate herbicide injury (plant stunting, chlorosis, necrosis, malformation, and death) was assessed by visual inspection of the plants 18 days after herbicide treatment. Herbicide injury rate was presented on a scale of 0 to 100 with “0” being no visible crop injury and “100” being complete crop injury or death.

transgenic maize plants [2] = test: Glyphosate spray test on R0 transgenic maize plants; format: in vivo, Zea mays; details: for Percent of sprayed plants showing glyphosate injury: 0.75 lb ae/acre POST at V3-V4, seven days after application; for plants injured by the glyphosate spray: injury observed 1 week following treatment
Description: Two of the six EPSPS variants had developing plants greater than twenty-five. The extra developing R0 plants from these two variants were utilized in a glyphosate spray test to determine the tolerance provided by the EPSPS variants to a typical post glyphosate application to young plants. The R0 plants were sprayed with glyphosate applied postemergence (POST) at 0.75 lb ae (acid equivalent)/acre (0.84 kg ae/ha) at the V3-V4 stage. Treated plants were evaluated for injury seven days after glyphosate application.

maize EPSPS = test: In vitro characterization of EPSPS mutants (EnzChek phosphate assay, Michaelis-Menten kinetics, glyphosate Ki); format: biochemical, Zea mays; details: for Km: apparent Km, mean±S.E.; for Ki: inhibitory constant for glyphosate, no unit in table (around 800 μM)
Description: Activity was determined by quantifying release of Pi, coupled to a reaction with MESG, catalyzed by purine-nucleoside phosphorylase using the EnzChek Phosphate Assay Kit from Invitrogen, first published in 1992. 95 μL of master mix was added to each well and 5 μL of the varied substrate dilutions were multi-channeled into the plate to start the reaction simultaneously for all conditions. Absorbance measurements at 360 nm were taken every 10 seconds for 3 minutes to capture the initial reaction rate of each condition. Varying levels of substrate were added to generate the resulting reaction rate curves. Each condition was performed in triplicate. Ki was determined as previously described (Lu, et al., Protein Engineering, Design and Selection 30:395-399 (2017)). Data was fit to the Michaelis-Menten kinetics equation and were also validated through GraphPad Prism's built-in function for each variant.
For protein expression of EPSPS and its variants, E. coli BL21 (DE3) was used as the expression host. Electrocompetent cells were transformed with the corresponding constructed plasmids, pET28a (+) with selected EPSPS variants (wild-type, TIPS, TIPS P126S, TIPS K296R, TIPS P126S/K296R). A single colony of an E. coli BL21 (DE3) strain harboring one of the constructed plasmids was inoculated into 2 mL of Luria Bertani broth (LB) medium with 50 μg/mL kanamycin and grown overnight at 37° C./225 rpm. The overnight-grown culture (using 100 μl) was scaled up with 2000-fold dilution in a 500-mL triple baffled shake flask and grown to a cell density of 0.8 (optical density [OD600]) at 37° C./225 rpm. Protein expression was induced by adding 0.2 mM of isopropyl β-D-1-thiogalactopyranoside (IPTG) and cells were cultured for 24 hours at 20° C./225 rpm. The induced cell culture was harvested by centrifugation at 4,000 g and 4° C. for 20 mins. Cell pellets were then resuspended in 25 mL of Dulbecco's Phosphate Buffered Saline (DPBS) (Thermo Fisher Scientific, Waltham, MA) pH 7.0 buffer containing 10 mM imidazole, 1 g/L of lysozyme and 5 μl of Pierce™ Universal Nuclease (Thermo Fisher Scientific, Waltham, MA), followed by mixing on a rocker for 30 mins at 4° C. Subsequently, cells were lysed by sonication and the resulting cell lysate was centrifuged at 14,000 g and 4° C. for 20 minutes to obtain the supernatant that contains soluble proteins. Target proteins from the supernatant was purified by HisPur™ Ni-NTA Resin (Thermo Fisher Scientific, Waltham, MA) according to the manufacturer's instruction.
The eluate was dialyzed with 3C protease added to the dialysis cassette, into the appropriate buffer followed by size-exclusion fast protein liquid chromatography. All EPSP synthase variants were stored in 20 mM Tris (pH 7.5), 100 mM NaCl and 10 mM β-mercaptoethanol. The protein concentration was then determined by using the Coomassie Plus Bradford Assay kit (Thermo Fisher Scientific) and the Infinite M200 PRO microplate reader (Tecan, Männedorf, Switzerland) to measure the absorbance of assay mixtures. The presence and purity of the purified proteins were assessed by sodium dodecyl sulfate-polyacrylamide gel electrophoresis.
Enzymatic activity, including inhibitory constant Ki, for EPSPS and TIPS closely corroborate values determined by previous reports. Mutations P126S and K296R have beneficial effects on their own to both Km and kcat and are additive when combined, similar to the observations of the in vivo growth characterization. Furthermore, the high Ki is maintained for each of the variants, showing similar or slightly higher values of around 800 μM compared to the starting point, TIPS. These findings confirm the phenotype endowed by the dual-trait selection pressure employed during the directed evolution campaigns. Kinetic parameters of maize EPSPS with mutations discovered through directed evolution. In Table 4, initial velocity data were measured in triplicate and fit to the Michaelis-Menten equation. […]

[3] = PEP at saturation (roughly 10 times its Km), read-out: Km (S3P)
[4] = S3P at saturation (roughly 10 times its Km), read-out: Km (PEP)

B1: TIPS: Zea mays EPSPS double mutant T102I and P106S, SEQ ID NO:9; positive control (protein)
chain: AGAEEIVLQPIKEISGTVKLPGSKSLSNRILLLAALSEGTTVVDNLLNSEDVHYMLGALRTLGLSVEADKAAKRAVVVGCGGKFPVEDSKEEVQLFLGNAGIAMRSLTAAVTAAGGNATYVLDGVPRMRERPIGDLVVGLKQLGADVDCFLGTDCPPVRVNGIGGLPGGKVKLSGSISSQYLSALLMAAPLALGDVEIEIIDKLISIPYVEMTLRLMERFGVKAEHSDSWDRFYIKGGQKYKSPKNAYVEGDASSASYFLAGAAITGGTVTVEGCGTTSLQGDVKFAEVLEMMGAKVTWTETSVTVTGPPREPFGRKHLKAIDVNMNKMPDVAMTLAVVALFADGPTAIRDVASWRVKETERMVAIRTELTKLGASVEEGPDYCIITPPEKLNVTAIDTYDDHRMAMAFSLAACAEVPVAIRDPGCTRKTFPDYFDVLSTFVKN
modifications: Zea mays
notes: positive control
Transgenic maize plants [1]; 2× field rate
  tolerance to glyphosate: minor injuries
Transgenic maize plants [1]
  Average Injury At 1120 g/ha: 0
  Average Injury At 2240 g/ha: 1.25
Transgenic maize plants [2]
  Percent of sprayed plants showing glyphosate injury: 30%
  plants injured by the glyphosate spray: Three of the ten
Maize EPSPS; [3]
  Km: 33.2 µM
Maize EPSPS; [4]
  Km: 26.2 µM
Maize EPSPS
  Ki: 739 µM

B2: TIPS-P126S-K296R: maize EPSPS variant, probably SEQ ID NO:11 (protein)
chain: B1 chain with P126S, K296R
modifications: Zea mays
Transgenic maize plants [1]; 2× field rate
  tolerance to glyphosate: minor injuries
Transgenic maize plants [1]
  Average Injury At 1120 g/ha: 0
  Average Injury At 2240 g/ha: 17
Transgenic maize plants [1]; equivalent 1× field dose
  tolerance to glyphosate: excellent tolerance
Transgenic maize plants [2]
  Percent of sprayed plants showing glyphosate injury: 0%
  plants injured by the glyphosate spray: none
Maize EPSPS; [3]
  Km: 16.8 µM
Maize EPSPS; [4]
  Km: 15.5 µM
Maize EPSPS; higher than evolutionary starting point TIPS
  enzymatic efficiency relative to TIPS: roughly 2.5 fold
Maize EPSPS
  Ki: 871 µM
